T1: PH domain of the Tfb1 subunit of TFIIH (Tfb1PH; residues 1-115) (S. cerevisiae, UniProt P32776 1-115)
T1 sequence (looked up): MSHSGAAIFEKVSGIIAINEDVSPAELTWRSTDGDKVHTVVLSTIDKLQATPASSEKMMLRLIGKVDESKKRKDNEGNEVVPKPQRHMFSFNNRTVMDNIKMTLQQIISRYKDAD


Tests used:
[1] = target: T1, PH domain of the Tfb1 subunit of TFIIH …; experiment: ITC
[2] = target: T1, PH domain of the Tfb1 subunit of TFIIH …; experiment: NMR titration

Row | Binder | Kd [1] [nM] | stoichiometry N [1] | fold reduction of affinity against Rad4 76-115 [1] [fold] | binding result [2]
1 | FYQDEEDDLSDIDWEEVSLDGSL (peptide, UniProt Q06665 41-63, looked up) [Rad34 residues 41-63] | 11 | 1 |  | 
2 | TDDSVEEIQSSEEDYDSEEFEDVTDGNEVAGVEDISVEIK (domain or fragment, S. cerevisiae, UniProt P14736 76-115, looked up) [Rad4 residues 76-115 (acidic segment from the N-terminal region of Rad4)] | 50 | 1 |  | 
3 | TDDSVEEIQSSEEDYDSEEFEDPTDGNEVAGVEDISVEIK (domain or fragment, S. cerevisiae, UniProt P14736 76-115, looked up) [Rad4 residues 76-115, V98P mutant] |  | 1 | 24 | 
4 | TDDSVEEIQSSEEDYDSEEPEDVTDGNEVAGVEDISVEIK (domain or fragment, S. cerevisiae, UniProt P14736 76-115, looked up) [Rad4 residues 76-115, F95P mutant] |  | 1 | 50 | 

Continued, values first:

Row | Kd [1] [nM] | stoichiometry N [1] | fold reduction of affinity against Rad4 76-115 [1] [fold] | binding result [2] | Binder
5 | > 10000 |  |  |  | FYQDEEDDLSDIDSEEVSLDGSL (peptide, UniProt Q06665 41-63, looked up) [Rad34 residues 41-63, W54S mutant]
6 |  |  |  | binds | RSEDEGCDSDECEWEEVELKPKNVK (peptide, UniProt P07276 359-383, looked up) [Rad2 residues 359-383 (acidic segment of the spacer region of Rad2)]

Reference: paper PMC3575800 (Nucleic Acids Research, 2013)
